Kd data for five sequences are collected here from the Immune Epitope Database (IEDB).

One assay concerns the target HLA-B*40:01. Put plainly: IEDB peptide-MHC binding, purified MHC/direct/fluorescence; filed as Kd, often an IC50 or EC50 that approximates it; ≥ and ≤ were set here for values at or beyond the usual limits of such assays.
Assay [1] deals with HLA-B*15:01. The description is as above.
The target of the next assay is HLA-B*08:01. The assay is described as above. The note with it: source organism: Influenza A virus (A/chicken/Hunan/fg/2004(H5N1)).
A further assay has as its target HLA-A*24:02. The assay is described as above.
A further assay deals with HLA-B*44:02. The assay is described as above. To be noted: source organism: Influenza A virus (A/chicken/Hunan/fg/2004(H5N1)).
The next assay has as its target HLA-B*58:01. The description is as above.
The next assay concerns the target HLA-B*27:05. Described as above.
The target in assay [2] is HLA-A*11:01. The description is as above.
Assay [3] deals with HLA-A*03:01. The assay is described as above.
Assay [4] deals with HLA-A*69:01. The description is as above.
Assay [5] deals with HLA-A*02:01. Described as above.
The target in assay [6] is HLA-A*26:01. The description is as above. The note with it: source organism: Influenza A virus (A/chicken/Hunan/fg/2004(H5N1)).
In assay [7] the target is HLA-B*07:02. The description is as above.
In assay [8] the target is HLA-A*31:01. Described as above. To be noted: source organism: Influenza A virus (A/chicken/Hunan/fg/2004(H5N1)).
The target in another assay is HLA-A*01:01. Described as above.
A further assay addresses HLA-B*27:03. Nature of the assay: IEDB peptide-MHC binding, purified MHC/competitive/fluorescence; filed as Kd, often an IC50 or EC50 that approximates it; ≥ and ≤ were set here for values at or beyond the usual limits of such assays. To be noted: source organism: Homo sapiens.
Assay [9] deals with HLA-B*18:01. The assay is described as above. To be noted: source organism: Homo sapiens.
For assay [10], the target named is HLA-B*15:01. The description is as above. To be noted: source organism: Homo sapiens.
In assay [11] the target is HLA-B*51:01. Described as above. To be noted: source organism: Homo sapiens.
A further assay deals with HLA-B*57:01. Described as above. The note with it: source organism: Homo sapiens.
A further assay has as its target HLA-B*15:17. The assay is described as above. To be noted: source organism: Homo sapiens.
Assay [12] addresses HLA-A*69:01. Described as above. To be noted: source organism: Homo sapiens.
Assay [13] deals with HLA-B*46:01. The description is as above. To be noted: source organism: Homo sapiens.
The target in assay [14] is HLA-A*02:01. Described as above. To be noted: source organism: Homo sapiens.
Another assay has as its target HLA-B*39:01. The description is as above. To be noted: source organism: Homo sapiens.
Assay [15] concerns the target HLA-A*26:01. The description is as above. The note with it: source organism: Homo sapiens.
For assay [16], the target named is HLA-B*18:01. Put plainly: IEDB peptide-MHC binding, purified MHC/direct/fluorescence; filed as Kd, often an IC50 or EC50 that approximates it; ≥ and ≤ were set here for values at or beyond the usual limits of such assays. To be noted: source organism: Escherichia coli O157:H7.
Assay [17] concerns the target HLA-B*46:01. The assay is described as above. The note with it: source organism: Escherichia coli O157:H7.
The next assay deals with HLA-A*02:03. Put plainly: IEDB peptide-MHC binding, purified MHC/competitive/radioactivity; filed as Kd, often an IC50 or EC50 that approximates it; ≥ and ≤ were set here for values at or beyond the usual limits of such assays. The note with it: source organism: Vaccinia virus WR.
The next assay deals with HLA-B*53:01. The description is as above. To be noted: source organism: Vaccinia virus WR.
The next assay concerns the target HLA-B*35:01. The assay is described as above. The note with it: source organism: Vaccinia virus WR.
In the next assay the target is HLA-A*33:01. Described as above. To be noted: source organism: Vaccinia virus WR.
In the next assay the target is HLA-A*68:02. Described as above. To be noted: source organism: Vaccinia virus WR.
For assay [18], the target named is HLA-B*51:01. Described as above. The note with it: source organism: Vaccinia virus WR.
Another assay has as its target HLA-B*54:01. The description is as above. The note with it: source organism: Vaccinia virus WR.
The target of assay [19] is HLA-A*11:01. The assay is described as above. The note with it: source organism: Vaccinia virus WR.
Assay [20] addresses HLA-A*03:01. The assay is described as above. To be noted: source organism: Vaccinia virus WR.
A further assay has as its target HLA-A*68:01. The description is as above. The note with it: source organism: Vaccinia virus WR.
In a further assay the target is HLA-A*02:02. Described as above. To be noted: source organism: Vaccinia virus WR.
In assay [21] the target is HLA-A*02:01. The assay is described as above. The note with it: source organism: Vaccinia virus WR.
Assay [22] concerns the target HLA-B*07:02. The assay is described as above. The note with it: source organism: Vaccinia virus WR.
Assay [23] addresses HLA-A*31:01. Described as above. To be noted: source organism: Vaccinia virus WR.
A further assay has as its target HLA-A*02:06. The description is as above. To be noted: source organism: Vaccinia virus WR.
The mark [24] stands for this setting: source organism: Influenza A virus (A/chicken/Hunan/fg/2004(H5N1)).
Setting [25] is: source organism: Escherichia coli O157:H7.

A word on the Kd: it is the equilibrium constant for the complex coming apart.

As to DTVNRTHQY, the Kd with HLA-B*40:01 (setting [24]), in the assay with HLA-B*15:01 [1] (setting [24]), in the assay with HLA-B*08:01, in the assay with HLA-A*24:02 (setting [24]), in the assay with HLA-B*44:02 and in the assay with HLA-B*58:01 (setting [24]) was ≥ 20 µM throughout. Further, the Kd with HLA-B*27:05 (setting [24]) is ≥ 20 µM; with HLA-A*11:01 [2] (setting [24]) it was ≥ 20 µM; with HLA-A*03:01 [3] (setting [24]), ≥ 20 µM; with HLA-A*69:01 [4] (setting [24]), ≥ 20 µM; with HLA-A*02:01 [5] (setting [24]) it was ≥ 20 µM; with HLA-A*26:01 [6] it was 0.0055 µM. In addition, the Kd with HLA-B*07:02 [7] (setting [24]) and with HLA-A*31:01 [8] was ≥ 20 µM throughout.

As to RTDNGGWAH, the Kd with HLA-A*01:01 (source organism: Homo sapiens) is 0.0631 µM; with HLA-B*27:03, ≥ 20 µM; with HLA-B*18:01 [9], ≥ 20 µM; in the assay with HLA-B*15:01 [10] it was ≥ 20 µM; with HLA-B*51:01 [11] it was ≥ 20 µM; in the assay with HLA-B*57:01, ≥ 20 µM. Further, the Kd in the assay with HLA-B*15:17, with HLA-A*69:01 [12], with HLA-B*46:01 [13], with HLA-A*02:01 [14], with HLA-B*39:01 and with HLA-A*26:01 [15] was ≥ 20 µM each time.

In the case of QMRVRYYGL, the Kd in the assay with HLA-B*40:01 (setting [25]), with HLA-B*18:01 [16], with HLA-B*15:01 [1] (setting [25]), with HLA-A*01:01 (setting [25]), with HLA-A*24:02 (setting [25]) and with HLA-B*58:01 (setting [25]) was ≥ 20 µM each time. Also, the Kd in the assay with HLA-B*27:05 (setting [25]), with HLA-A*11:01 [2] (setting [25]), with HLA-A*03:01 [3] (setting [25]), with HLA-A*69:01 [4] (setting [25]), with HLA-B*46:01 [17] and in the assay with HLA-A*02:01 [5] (setting [25]) was ≥ 20 µM throughout. In addition, the Kd in the assay with HLA-B*07:02 [7] (setting [25]) is ≥ 20 µM.

As for GTEYRLTLY, the Kd with HLA-A*01:01 (source organism: Canis lupus familiaris) is 0.0008 µM; in the assay with HLA-B*27:03, ≥ 20 µM; with HLA-B*15:01 [10] it was ≥ 20 µM; with HLA-B*51:01 [11] it was ≥ 20 µM; with HLA-B*57:01, ≥ 20 µM; in the assay with HLA-A*69:01 [12], ≥ 20 µM. The Kd with HLA-B*46:01 [13], in the assay with HLA-A*02:01 [14], in the assay with HLA-B*39:01 and with HLA-A*26:01 [15] was ≥ 20 µM each time.

CTFMIITSTK: the Kd with HLA-A*02:03 was 6.79 µM; in the assay with HLA-B*53:01, 1.91 µM; in the assay with HLA-B*35:01 it was ≥ 64.7 µM; in the assay with HLA-A*33:01 it was 1.22 µM; with HLA-A*68:02, ≥ 37.6 µM; with HLA-B*51:01 [18], 10.3 µM. Also, the Kd with HLA-B*54:01 amounted to 3.26 µM; with HLA-A*11:01 [19], 1.12 µM; in the assay with HLA-A*03:01 [20] it was 0.459 µM; with HLA-A*68:01, 0.0835 µM; in the assay with HLA-A*02:02, 8.14 µM; with HLA-A*02:01 [21], 1.86 µM. For the same sequence, the Kd in the assay with HLA-B*07:02 [22] was determined as 3.05 µM; in the assay with HLA-A*31:01 [23], 0.169 µM; with HLA-A*02:06, 13.5 µM.
